Data reported in patent US20220089755A1 (COMMISSARIAT A L ENERGIE ATOMIQUE ET AUX ENERGIES …, published 2022).

Legend:
[1] = molecular target: T1, endothelin receptor subtype A (ETA-R) expressed on the surface of Gli-7 glioblastoma cells (human, UniProt P25101 21-427); assay: flow cytometry on Gli-7 glioblastoma cells
T1 construct: whole, on cells; also called ETA-R on Gli-7; ETAR on glioblastoma cells
T1 sequence (looked up): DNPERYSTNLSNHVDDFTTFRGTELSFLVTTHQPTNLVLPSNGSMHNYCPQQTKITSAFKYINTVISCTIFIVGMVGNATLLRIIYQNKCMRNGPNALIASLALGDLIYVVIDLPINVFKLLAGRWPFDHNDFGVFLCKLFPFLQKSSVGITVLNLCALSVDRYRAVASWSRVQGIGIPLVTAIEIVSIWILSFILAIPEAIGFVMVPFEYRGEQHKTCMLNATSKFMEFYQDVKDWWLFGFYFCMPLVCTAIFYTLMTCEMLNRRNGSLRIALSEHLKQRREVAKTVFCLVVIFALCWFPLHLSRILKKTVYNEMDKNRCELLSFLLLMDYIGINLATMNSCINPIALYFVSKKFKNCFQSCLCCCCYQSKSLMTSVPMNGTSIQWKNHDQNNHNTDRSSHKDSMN

[2] = molecular target: T2, endothelin receptor subtype A (ETA-R) expressed on stably transfected CHO cells (CHO-ETAR) (UniProt P25101 21-427, limits assumed); assay: flow cytometry on CHO-ETAR cells, apparent Kd, one-site fit, with or without 100 nM ET1
T2 construct: whole, on cells; also called endothelin type A receptor
T2 sequence (looked up): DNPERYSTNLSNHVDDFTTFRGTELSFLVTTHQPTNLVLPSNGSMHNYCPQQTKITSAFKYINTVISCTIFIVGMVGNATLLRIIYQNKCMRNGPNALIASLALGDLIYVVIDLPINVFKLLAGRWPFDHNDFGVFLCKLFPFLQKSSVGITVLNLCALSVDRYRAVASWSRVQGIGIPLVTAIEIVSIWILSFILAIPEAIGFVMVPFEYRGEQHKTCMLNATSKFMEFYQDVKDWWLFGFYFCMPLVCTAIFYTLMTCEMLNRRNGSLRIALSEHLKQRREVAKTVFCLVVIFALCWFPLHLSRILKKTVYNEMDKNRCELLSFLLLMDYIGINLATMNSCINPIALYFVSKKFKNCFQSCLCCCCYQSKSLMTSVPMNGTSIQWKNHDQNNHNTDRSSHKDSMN
Description: The fluorescence is quantified by flow cytometry on an FACSCalibur™ (BD Bioscience). A range of concentrations of antibodies lying between, at a maximum, 1 μM and, at a minimum, […] was incubated for 2 hours at 4° C. in the presence or not of 100 nM ET1 (preincubated for 30 minutes at 4° C.). At 90% confluence, the cells are detached in the presence of versene and then aliquoted in tubes (300 μl/300,000 cells) in the presence of a saturation buffer (PBS-SNC 5%-BSA 0.1%) stored at 4° C. After three washes in PBS buffer, 300 μl of secondary antibody labeled with Alexa Fluor™ 488 (AF-488) diluted to 1/400 was added and incubated for 60 minutes at 4° C. (Goat anti-mouse IgG, Invitrogen-ref A10684). For each antibody concentration point, after three washes in PBS, 10,000 cells were counted with flow cytometry.
The data were analysed in the GraphPad Prism software and the curves modelled according to the parameter: a specific binding site. […] The binding of RA63 was therefore not modified in the presence of ET1.

B1: Rendomab-A63 (antibody, mouse IgG2b, V domains shown)
VH: EVQLVESGGGLVQPKGSLKLSCAASGFTFNIYAMNWIRQAPGKGLEWIARIRSKSNNYATYYADSVKDRFTISRDDSQNMVYLQMNNLKTEDTAMYYCVSSYYSGSFFAYWGQGTLVTVSA
VL: DVLMTQTPLSLPVSLGDQASISCRSSQSIVYSNGKIYLEWYLQKPGQSPKLLIYKVSNRFSGVPDRFSGSGSGTDFTLKISRVEAEDLGVYYCFQGSHLPLTFGAGTKLELKR
notes: also called RA63; monoclonal murine antibody from the hybridoma CNCM I-5250
Kd [1]: ~15 nM | Kd [2]: ~0.5 nM
